These results are taken from article PMC9246715, “Bacillus subtilis biofilm matrix components target seed oil bodies to promote growth and anti-fungal resistance in melon” (Nature Microbiology, 2022).

This data set concerns the molecule itself. Briefly: thioflavin T fluorescence (polymerization kinetics) + TEM; purified TasA 0.4 or 0.2 mg/ml in buffer (20 mM Tris, 50 mM NaCl, pH 7) or seed apoplastic fluid, 20 µM ThT, 30 °C, shaking.

B1: amyloid protein TasA (natural protein, B. subtilis, UniProt P54507 28-261, looked up)
chain: AFNDIKSKDATFASGTLDLSAKENSASVNLSNLKPGDKLTKDFQFENNGSLAIKEVLMALNYGDFKANGGSNTSPEDFLSQFEVTLLTVGKEGGNGYPKNIILDDANLKDLYLMSAKNDAAAAEKIKKQIDPKFLNASGKVNVATIDGKTAPEYDGVPKTPTDFDQVQMEIQFKDDKTKDEKGLMVQNKYQGNSIKLQFSFEATQWNGLTIKKDHTDKDGYVKENEKAHSEDKN
notes: TasA, amyloid protein of the extracellular matrix of Bacillus subtilis biofilms; also called purified TasA
In the case of B1, the binding result is “binds”.
